Values of other authors, collected in article PMC5132258.

Target: His89 (UniProt position 89, VLYCVHQRIDV)
Conditions: not stated (folded wild-type matrix protein implied; myristoylation state not given)

Q: Which pKa does the source give for “HIV-1 matrix protein p17 (MA), N-terminal domain of the Gag polyprotein (Human immunodeficiency virus type 1)” here?
A: The pKa was 6.5.
